Experiments:
[1] = biological target: T1, Survivin (purified recombinant Survivin protein) (human, UniProt O15392 1-140, limits assumed, biotinylated on the Avi-tag by BirA (antigens for selection and ELISA)); assay: multipoint protein ELISA: 50 nM immobilised target, 3-fold serial dilutions of purified Fab, protein L-HRP, sigmoidal fit
T1 construct: also called Baculoviral IAP repeat-containing protein 5; BIRC5
Procedure: Protein based multipoint ELISA was performed to estimate the affinity of the generated unique Fabs to their cognate antigens. A fixed concentration of the immobilized target (50 nM) on ELISA plate was incubated with 3-fold serial dilutions of the purified Fabs starting from […] for 15 min. The plates were washed and the bound antigen-Fab complexes were incubated with H1RP-conjugated protein L (1:5000 dilution in PBST). As with phage ELISA, the plates were again washed, developed with TMB substrate and quenched with 1.0 M HCl, and absorbance (A450) was determined. To determine the affinity, the data were fitted in a non-linear sigmoidal function with variable slope in GraphPad PRISM and EC50 value was calculated (FIG. 2).

[2] = biological target: T2, cell surface survivin on cancer cells (human, UniProt O15392 1-142); assay: flow cytometry of live cells, 200 nM Fab, anti-human F(ab')2-A647 secondary
T2 construct: whole, on cells
Procedure: (§1) Human or murine tumor cells were trypsinized, washed and resuspended in Flow buffer (1×PBS supplemented with 2% FBS) and added to a 96-well plate (#3799, Costar). 200 nM primary CPC Fab was mixed with 0.5M cells and incubated at 37 C for 20 min. […] Samples were analyzed by flow cytometry using CytoFLEX (Beckman Coulter) and mean fluorescence intensity (MFI) data was extracted using the FlowJo software (FIG. 5A-E, FIG. 6). Human peripheral blood mononuclear cells (PBMCs) derived from a single patient were used as a source of healthy human cells. PBMCs were counted, split and spun down 400×g 5 min. Cells were resuspended in Flow buffer (1×PBS supplemented with 2% FBS) and pre-incubated with TruStain FcX (1:20, Biolegend 422302) for 10 min at 37 C, followed by 200 nM primary Fab incubation at 37 for 20 min. […] Mean fluorescence intensity (MFI) data was extracted using the FlowJo software (FIG. 5F).

[3] = biological target: T3, Survivin of murine tumor cells (CT-26, MC-38) (mouse, UniProt O70201); assay: flow cytometry of live murine colon tumor cells, 200 nM Fab, anti-human F(ab')2-A647 secondary
T3 construct: also called murine survivin
Procedure: as §1

[4] = biological target: T1, Survivin (purified recombinant Survivin …); assay: SPR: target immobilised on NTA chip by His-tag, 2-fold serial dilutions of Fab, 1:1 Langmuir fit
Procedure: The targets were immobilized onto a nitrilotriacetic acid (NTA) sensor chip via His-tag. 2-fold serial dilutions of the Fab were injected following ligand immobilization on the sensor chip. For each kinetic assay at least five dilutions of the Fab were tested. The data were fitted using 1:1 Langmuir Model to obtain the on-rate, off-rate and the affinity (KD) of the Fab-target interaction. (FIG. 4).

T3 sequence (O70201 whole entry): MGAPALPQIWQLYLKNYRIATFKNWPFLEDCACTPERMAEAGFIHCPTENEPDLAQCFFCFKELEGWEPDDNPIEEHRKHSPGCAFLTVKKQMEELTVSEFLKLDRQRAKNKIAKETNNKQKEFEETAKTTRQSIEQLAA
T2 sequence (O15392 whole entry): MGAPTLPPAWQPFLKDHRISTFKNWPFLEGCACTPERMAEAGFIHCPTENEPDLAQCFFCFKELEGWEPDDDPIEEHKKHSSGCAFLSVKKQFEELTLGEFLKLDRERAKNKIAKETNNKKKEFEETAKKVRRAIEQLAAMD
T1 sequence (O15392 1-140 limits assumed): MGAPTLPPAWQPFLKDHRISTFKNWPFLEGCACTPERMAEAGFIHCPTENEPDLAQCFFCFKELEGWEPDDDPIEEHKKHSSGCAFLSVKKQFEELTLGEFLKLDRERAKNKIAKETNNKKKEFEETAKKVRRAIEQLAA

Binder | EC50 [1] | other results
SUR-N-53 (Fab, V domains shown, also called SUR-N-53 Fab) VH: EVQLVESGGGLVQPGGSLRLSCAASGFNVSSSYIHWVRQAPGKGLEWVASIYSYYGSTSYADSVKGRFTISADTSKNTAYLQMNSLRAEDTAVYYCARSFTEKWAYSWAIDYWGQGTLVTVSS VL: DIQMTQSPSSLSASVGDRVTITCRASQSVSSAVAWYQQKPGKAPKLLIYSASSLYSGVPSRFSGSRSGTDFTLTISSLQPEDFATYYCQQYAWSLFTFGQGTKVEIKR | 100 nM | 
SUR-FL-23 (Fab, V domains shown, also called SUR-FL-23 Fab) VH: EVQLVESGGGLVQPGGSLRLSCAASGFNFSSSSIHWVRQAPGKGLEWVASISSYSSSTSYADSVKGRFTISADTSKNTAYLQMNSLRAEDTAVYYCARYMVSMWSYSWYVKWYAMDYWGQGTLVTVSS VL: DIQMTQSPSSLSASVGDRVTITCRASQSVSSAVAWYQQKPGKAPKLLIYSASSLYSGVPSRFSGSRSGTDFTLTISSLQPEDFATYYCQQSSSSLITFGQGTKVEIKR | 1 nM | 
SUR-FL-29 Fab (Fab, V domains shown) VH: EVQLVESGGGLVQPGGSLRLSCAASGFNVSYYSIHWVRQAPGKGLEWVASIYPYYGSTSYADSVKGRFTISADTSKNTAYLQMNSLRAEDTAVYYCARWQFYGYYHGLYFTDLGIDYWGQGTLVTVSS VL: DIQMTQSPSSLSASVGDRVTITCRASQSVSSAVAWYQQKPGKAPKLLIYSASSLYSGVPSRFSGSRSGTDFTLTISSLQPEDFATYYCQQSGGFPITFGQGTKVEIKR |  | binding result [2]: binds; binding result [3]: binds
SUR-FL-47 (Fab, V domains shown, also called SUR-FL-47 Fab) VH: EVQLVESGGGLVQPGGSLRLSCAASGFNVSYSSIHWVRQAPGKGLEWVASIYSYYGYTSYADSVKGRFTISADTSKNTAYLQMNSLRAEDTAVYYCARWPHYWGQGVSSMDYWGQGTLVTVSS VL: DIQMTQSPSSLSASVGDRVTITCRASQSVSSAVAWYQQKPGKAPKLLIYSASSLYSGVPSRFSGSRSGTDFTLTISSLQPEDFATYYCQQSYYFPVTFGQGTKVEIKR | 29 nM | 
SUR-FL-25 (Fab, V domains shown, also called SUR-FL-25 Fab) VH: EVQLVESGGGLVQPGGSLRLSCAASGFNVYSSSIHWVRQAPGKGLEWVASIYPYYSYTSYADSVKGRFTISADTSKNTAYLQMNSLRAEDTAVYYCARWKKSRSGGMWGMDYWGQGTLVTVSS VL: DIQMTQSPSSLSASVGDRVTITCRASQSVSSAVAWYQQKPGKAPKLLIYSASSLYSGVPSRFSGSRSGTDFTLTISSLQPEDFATYYCQQYSSFPITFGQGTKVEIKR | 10 nM | 
SUR-N-07 (Fab, V domains shown, also called SUR-N-07 Fab) VH: EVQLVESGGGLVQPGGSLRLSCAASGFNFSSSSIHWVRQAPGKGLEWVASISPYSGYTYYADSVKGRFTISADTSKNTAYLQMNSLRAEDTAVYYCARWYWAYPYWWYAMDYWGQGTLVTVSS VL: DIQMTQSPSSLSASVGDRVTITCRASQSVSSAVAWYQQKPGKAPKLLIYSASSLYSGVPSRFSGSRSGTDFTLTISSLQPEDFATYYCQQSWGPPVTFGQGTKVEIKR |  | binding result [2]: binds
SUR-FL-26 (Fab, V domains shown, also called SUR-FL-26 Fab) VH: EVQLVESGGGLVQPGGSLRLSCAASGFNVSYSSIHWVRQAPGKGLEWVASISPYYGYTYYADSVKGRFTISADTSKNTAYLQMNSLRAEDTAVYYCARWYFEYPYYMWGLDYWGQGTLVTVSS VL: DIQMTQSPSSLSASVGDRVTITCRASQSVSSAVAWYQQKPGKAPKLLIYSASSLYSGVPSRFSGSRSGTDFTLTISSLQPEDFATYYCQQSYKPPITFGQGTKVEIKR | < 1 nM | 
SUR-N-40 Fab (Fab, V domains shown) VH: EVQLVESGGGLVQPGGSLRLSCAASGFNFSSSSIHWVRQAPGKGLEWVAYIYPSYGYTSYADSVKGRFTISADTSKNTAYLQMNSLRAEDTAVYYCARSLYSKMWYYGSYYFYQVGLDYWGQGTLVTVSS VL: DIQMTQSPSSLSASVGDRVTITCRASQSVSSAVAWYQQKPGKAPKLLIYSASSLYSGVPSRFSGSRSGTDFTLTISSLQPEDFATYYCQQGYKYLVTFGQGTKVEIKR | < 1 nM | binding result [3]: binds; Kd [4]: 2.1 nM
SUR-FL-24 (Fab, V domains shown, also called SUR-FL-24 Fab) VH: EVQLVESGGGLVQPGGSLRLSCAASGFNFYSSSIHWVRQAPGKGLEWVASIYPYYSSTSYADSVKGRFTISADTSKNTAYLQMNSLRAEDTAVYYCARWYHYYSVQQYGLDYWGQGTLVTVSS VL: DIQMTQSPSSLSASVGDRVTITCRASQSVSSAVAWYQQKPGKAPKLLIYSASSLYSGVPSRFSGSRSGTDFTLTISSLQPEDFATYYCQQSTSFPITFGQGTKVEIKR | 18 nM | 
SUR-FL-52 (Fab, V domains shown, also called SUR-FL-52 Fab) VH: EVQLVESGGGLVQPGGSLRLSCAASGFNFSSSSIHWVRQAPGKGLEWVASIYPYSGSTYYADSVKGRFTISADTSKNTAYLQMNSLRAEDTAVYYCARWDFGYYYWYSAIDYWGQGTLVTVSS VL: DIQMTQSPSSLSASVGDRVTITCRASQSVSSAVAWYQQKPGKAPKLLIYSASSLYSGVPSRFSGSRSGTDFTLTISSLQPEDFATYYCQQYWYTLITFGQGTKVEIKR |  | binding result [2]: binds
SUR-FL-31 (Fab, V domains shown, also called SUR-FL-31 Fab) VH: EVQLVESGGGLVQPGGSLRLSCAASGFNFSSSSIHWVRQAPGKGLEWVASISSYSGYTYYADSVKGRFTISADTSKNTAYLQMNSLRAEDTAVYYCARGKQKSYGQWYFYYWAIDYWGQGTLVTVSS VL: DIQMTQSPSSLSASVGDRVTITCRASQSVSSAVAWYQQKPGKAPKLLIYSASSLYSGVPSRFSGSRSGTDFTLTISSLQPEDFATYYCQQSSSSLITFGQGTKVEIKR | 2 nM | 
SUR-N-36 Fab (Fab, V domains shown) VH: EVQLVESGGGLVQPGGSLRLSCAASGFNVSYSSIHWVRQAPGKGLEWVASIYPYYGYTSYADSVKGRFTISADTSKNTAYLQMNSLRAEDTAVYYCAREEYSTVQYWYYYWYPGMDYWGQGTLVTVSS VL: DIQMTQSPSSLSASVGDRVTITCRASQSVSSAVAWYQQKPGKAPKLLIYSASSLYSGVPSRFSGSRSGTDFTLTISSLQPEDFATYYCQQYMYSPITFGQGTKVEIKR | 2 nM | binding result [3]: binds; Kd [4]: 4.2 nM
SUR-N-28 (Fab, V domains shown, also called SUR-N-28 Fab) VH: EVQLVESGGGLVQPGGSLRLSCAASGFNFSSSYIHWVRQAPGKGLEWVASIYSSYGYTSYADSVKGRFTISADTSKNTAYLQMNSLRAEDTAVYYCARSYYYQYSGGWRGYYHALDYWGQGTLVTVSS VL: DIQMTQSPSSLSASVGDRVTITCRASQSVSSAVAWYQQKPGKAPKLLIYSASSLYSGVPSRFSGSRSGTDFTLTISSLQPEDFATYYCQQSSSSLITFGQGTKVEIKR | 3 nM | 
SUR-N-09 (Fab, V domains shown, also called SUR-N-09 Fab) VH: EVQLVESGGGLVQPGGSLRLSCAASGFNFYYSSIHWVRQAPGKGLEWVASISPYSGYTSYADSVKGRFTISADTSKNTAYLQMNSLRAEDTAVYYCARYMYYGWALDYWGQGTLVTVSS VL: DIQMTQSPSSLSASVGDRVTITCRASQSVSSAVAWYQQKPGKAPKLLIYSASSLYSGVPSRFSGSRSGTDFTLTISSLQPEDFATYYCQQGQWWGLITFGQGTKVEIKR | 30 nM | 
SUR-FL-22 (Fab, V domains shown, also called SUR-FL-22 Fab) VH: EVQLVESGGGLVQPGGSLRLSCAASGFNFYSSYIHWVRQAPGKGLEWVASIYSYSSSTSYADSVKGRFTISADTSKNTAYLQMNSLRAEDTAVYYCARAGWYWYYGIQFAFDYWGQGTLVTVSS VL: DIQMTQSPSSLSASVGDRVTITCRASQSVSSAVAWYQQKPGKAPKLLIYSASSLYSGVPSRFSGSRSGTDFTLTISSLQPEDFATYYCQQQRYGSLITFGQGTKVEIKR | 3 nM | 
SUR-FL-27 (Fab, V domains shown, also called SUR-FL-27 Fab) VH: EVQLVESGGGLVQPGGSLRLSCAASGFNVYSSYIHWVRQAPGKGLEWVASIYPSSGYTYYADSVKGRFTISADTSKNTAYLQMNSLRAEDTAVYYCARMSYYSWYYHSVYMYGLDYWGQGTLVTVSS VL: DIQMTQSPSSLSASVGDRVTITCRASQSVSSAVAWYQQKPGKAPKLLIYSASSLYSGVPSRFSGSRSGTDFTLTISSLQPEDFATYYCQQASSDHSLITFGQGTKVEIKR |  | binding result [2]: binds

Source: patent US20250018038A1 (UNIVERSITY OF CHICAGO, published 2025)
